The values that follow come from patent US5789237, “Nucleic acid sequences coding for or complementary to nucleic acid sequences coding for interleukin 9 receptor” (Ludwig Institute for Cancer Research, dated 1998).

The target of this experiment is T1, purified recombinant murine IL9, 125I labelled (murine, UniProt P15247, 125I label).
T1 sequence: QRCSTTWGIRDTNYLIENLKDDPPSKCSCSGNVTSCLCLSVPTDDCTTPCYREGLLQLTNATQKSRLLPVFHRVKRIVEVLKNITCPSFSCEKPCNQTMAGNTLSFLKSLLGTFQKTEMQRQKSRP
Description: Scatchard analysis on transfected COS cells. The protocol:
In order to make sure that clone p9RA1 and all subsequent clones did in fact express IL9R. Scatchard analysis was carried out on transfected COS cells, following Goodwin et al., Cell 60: 941–951 (1990). […] This is slightly higher than the dissociation constant measured on TS1 cells previously, i.e., 67 pM.

B1: murine IL-9 receptor encoded by clone p9RC4 (receptor)
chain: VSVPEQGGGGQKAGAFTCLSNSIYRIDCHWSAPELGQESRAWLLFTSNQVTEIKHKCTFWDSMCTLVLPFEEVFLPFDNFTITLHRCIMGQEQVSLVDSQYLPRRHIKLDPPSDLQSNVSSGRCVLTWGINLALEPLITSLSYELAFKRQEEAWEARHKDRIVGVTWLILEAVELNPGSIYEARLRVQMTLESYEDKTEGEYYKSHWSEWSQPVSFPSPQRRQGLLVPRWQWSASILVVVPIFLLLTGFVHLLFKLSPRLKRIFYQNIPSPEAFFHPLYSVYHGDFQSWTGARRAGPQARQNGVSTSSAGSESSIWEAVATLTYSPACPVQFACLKWEATAPGFPGLPGSEHVLPAGCLELEGQPSAYLPQEDWAPLGSARPPPPDSDSGSSDYCMLDCCEECHLSAFPGHTESPELTLAQPVALPVSSRA
For B1, the dissociation constant Kd was determined as 0.126 nM.

B2: murine IL-9 receptor encoded by clone p9RA1 (receptor)
chain: VSVPEQGGGGQKAGAFTCLSNSIYRIDCHWSAPELGQESRAWLLFTSNQVTEIKHKCTFWDSMCTLVLPFEEVFLPFDNFTITLHRCIMGQEQVSLVDSQYLPRRHIKLDPPSDLQSNVSSGRCVLTWGINLALEPLITSLSYELAFKRQEEAWEQARHKDRIVGVTWLILEAVELNPGSIYEARLRVQMTLESYEDKTEGEYYKSHWSEWSQPVSFPSPQRRQGLLVPRWQWSASILVVVPIFLLLTGFVHLLFKLSPRLKRIFYQNIPSPEAFFHPLYSVYHGDFQSWTGARRAGPQARQNGVSTSSAGSESSIWEAVATLTYSPACPVQFACLKWEATA
Consider B2, for which the Kd was determined as 0.194 nM.
